{"source": "paper PMC10716122", "parents": {"B1": {"name": "Cyclic GMP-AMP synthase (cGAS), wild type, expressed in human cells [human] / TRIM41, HA-tagged [human] (parent)", "chain 1": "MQPWHGKAMQRASEAGATAPKASARNARGAPMDPTESPAAPEAALPKAGKFGPARKSGSRQKKSAPDTQERPPVRATGARAKKAPQRAQDTQPSDATSAPGAEGLEPPAAREPALSRAGSCRQRGARCSTKPRPPPGPWDVPSPGLPVSAPILVRRDAAPGASKLRAVLEKLKLSRDDISTAAGMVKGVVDHLLLRLKCDSAFRGVGLLNTGSYYEHVKISAPNEFDVMFKLEVPRIQLEEYSNTRAYYFVKFKRNPKENPLSQFLEGEILSASKMLSKFRKIIKEEINDIKDTDVIMKRKRGGSPAVTLLISEKISVDITLALESKSSWPASTQEGLRIQNWLSAKVRKQLRLKPFYLVPKHAKEGNGFQEETWRLSFSHIEKEILNNHGKSKTCCENKEEKCCRKDCLKLMKYLLEQLKERFKDKKHLDKFSSYHVKTAFFHVCTQNPQDSQWDRKDLGLCFDNCVTYFLQCLRTEKLENYFIPEFNLFSSNLIDKRSKEFLTKQIEYERNNEFPVFDEF", "chain 2": "MAAVAMTPNPVQTLQEEAVCAICLDYFTDPVSIGCGHNFCRVCVTQLWGGEDEEDRDELDREEEEEDGEEEEVEAVGAGAGWDTPMRDEDYEGDMEEEVEEEEEGVFWTSGMSRSSWDNMDYVWEEEDEEEDLDYYLGDMEEEDLRGEDEEDEEEVLEEVEEEDLDPVTPLPPPPAPRRCFTCPQCRKSFPRRSFRPNLQLANMVQVIRQMHPTPGRGSRVTDQGICPKHQEALKLFCEVDEEAICVVCRESRSHKQHSVVPLEEVVQEYKAKLQGHVEPLRKHLEAVQKMKAKEERRVTELKSQMKSELAAVASEFGRLTRFLAEEQAGLERRLREMHEAQLGRAGAAASRLAEQAAQLSRLLAEAQERSQQGGLRLLQDIKETFNRCEEVQLQPPEVWSPDPCQPHSHDFLTDAIVRKMSRMFCQAARVDLTLDPDTAHPALMLSPDRRGVRLAERRQEVADHPKRFSADCCVLGAQGFRSGRHYWEVEVGGRRGWAVGAARESTHHKEKVGPGGSSVGSGDASSSRHHHRRRRLHLPQQPLLQREVWCVGTNGKRYQAQSSTEQTLLSPSEKPRRFGVYLDYEAGRLGFYNAETLAHVHTFSAAFLGERVFPFFRVLSKGTRIKLCP"}}, "data": [{"variants_of": "B1", "experiment": "co-IP (IP: GFP, blot cGAS-HA), band intensity printed under blot", "conditions": "with TRIM41, HA-tagged [human]; HEK293T cells; TRIM41-GFP co-expressed; 100 μg/mL etoposide for 4 h; parent: 1", "values": [{"variant": "chain 1 MQPWHGKAMQRASEAGATAPKASARNARGAPMDPTESPAAPEAALPKAGKFGPARKSGSRQKKSAPDTQERPPVRATGARAKKAPQRAQDTQPSDATSAPGAEGLEPPAAREPALSRAGACRQRGARCSTKPRPPPGPWDVPSPGLPVSAPILVRRDAAPGASKLRAVLEKLKLSRDDISTAAGMVKGVVDHLLLRLKCDSAFRGVGLLNTGSYYEHVKISAPNEFDVMFKLEVPRIQLEEYSNTRAYYFVKFKRNPKENPLSQFLEGEILSASKMLSKFRKIIKEEINDIKDTDVIMKRKRGGSPAVTLLISEKISVDITLALESKSSWPASTQEGLRIQNWLSAKVRKQLRLKPFYLVPKHAKEGNGFQEETWRLSFSHIEKEILNNHGKSKTCCENKEEKCCRKDCLKLMKYLLEQLKERFKDKKHLDKFSSYHVKTAFFHVCTQNPQDSQWDRKDLGLCFDNCVTYFLQCLRTEKLENYFIPEFNLFSSNLIDKRSKEFLTKQIEYERNNEFPVFDEF", "note": "[chain 1 S120A]", "ratio to parent": 0.68}, {"variant": "chain 1 S305A", "ratio to parent": 0.51}]}]}
